Experimental findings from patent publication US20030211563A1 (UNIVERSITY OF VIRGINIA PATENT FOUNDATION, published 2003) are described below.

In this assay the target is T1, tssk 2 fused to the GAL4 DNA binding domain (DNA-BD) (human, UniProt P04386 1-147 (Saccharomyces cerevisiae entry), limits assumed).
T1 construct: Yeast two-hybrid bait in reporter strain AH109; also called bait gene (tssk 2); TSSK2 fusion protein with the DNA-BD
The assay is described as follows: yeast two-hybrid, growth in His-free medium. On the procedure:
In this experiment, a bait gene (tssk 2) was first transformed into the reporter strain as a fusion to the GAL4 DNA binding domain (DNA-BD). A second plasmid that expressed tsks as fusion to the GAL 4 activation domain (AD) was also introduced into the AH109 reporter strain. Western blots were performed to confirm expression of fusion proteins in yeast. […] This interaction was used as a positive control. […] Neither GAL-AD alone nor the fusion proteins between GAL-AD and TSKS or GAL-AD and SV40 Large T antigen had the ability to activate transcription of the His gene.

B1: GAL4 activation domain alone (GAL-AD plasmid) (other, UniProt P04386 768-881, looked up)
chain: ANFNQSGNIADSSLSFTFTNSSNGPNLITTQTNSQALSQPIASSNVHDNFMNNEITASKIDDGNNSKPLSPGWTDQTAYNAFGITTGMFNTTTMDDVYNYLFDDEDTPPNPKKE
notes: Empty prey control in the yeast two-hybrid experiment; also called GAL-AD alone
In the case of B1, the binding result is given as “no binding”.
